{"source": "paper PMC12849132"}
{"biological_target": "T1, PhaR (Ralstonia eutropha H16 (Cupriavidus necator)) (UniProt Q0KBP6)", "T1 sequence": "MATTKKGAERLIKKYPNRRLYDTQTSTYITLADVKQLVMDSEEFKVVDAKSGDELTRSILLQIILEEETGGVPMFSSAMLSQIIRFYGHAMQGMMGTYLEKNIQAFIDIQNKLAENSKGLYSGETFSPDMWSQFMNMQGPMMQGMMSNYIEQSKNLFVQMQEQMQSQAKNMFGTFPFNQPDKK", "assay": "EMSA", "details": "EMSA: 0-250 ng PhaR, ~75 ng FAM-DNA, 5 uL master mix (1.75 uL 10x TBE, 0.25 uL 10 mg/mL herring sperm DNA, 3 uL DNA), 30 min at 37 C, 7.5% native PAGE"}
{"sequence": "ATCGAATTCTGTATTCAGAGATCCGTTCCAAGCGTCTGGGGTGAAGTGCGCCCTACACATGTCATGCACTGCAACATTTCTGCGTAAGCACATGTAAATTTAGAGACGTACGATGCACTTTTATTGTCCTGTTTTAAAGACTTTTTGGGTATATACCTAGGGATCAAATTAGAGGAAACCCTCTAGGATTCGCACTCGGATGCT (double strand) [F1 (BS1, phaP3)]", "binding": "binds"}
{"sequence": "GGCGCTGTCAATCCGGAAGCCAAACCGAAGCGGATTCACGTTGCAATCTGTTGCGCGAATCCGTTCGATCAATCCACAGGAGATTTTGCATGTCCCCTTTTATGCCCGAGCAATTTGCTGCAGTGCAAAAGTCCAGTCTGAACCAACTGTTCGCGCTGACGAACATGGCTTTTGACGGCGGA (double strand) [F3 (BS3, phaP3)]", "binding": "binds more weakly"}
{"sequence": "ATCGAATTCTGTATTCAGAGATCCGTTCCAAGCGTCTGGGGTGAAGTGCGCCCTACACATGTCATGCACTGCAACATTTCTGCGTAAGCACATGTAAATTTAGAGACGTACGATGCACTTTTATTGTCCTGTTTTAAAGACTTTTTGGGTATATACCTAGGGATCAAATTAGAGGAAACCCTCTAGGATTCGCACTCGGATGCTGCGCTGCAGGATTGGTGGCGCTGTCAATCCGGAAGCCAAACCGAAGCGGATTCACGTTGCAATCTGTTGCGCGAATCCGTTCGATCAATCCACAG (double strand) [F4 (BS1+BS2, phaP3)]", "binding": "binds"}
{"sequence": "ATCGAATTCACGATGCACTTTTATTGTCCTGTTTTAAAGACTTTTTGGGTATATACCTAGGGATCAAATTAGAGGAAACCCTCTAGGATTCGCACTCGGATGCTGCGCTGCAGGATTGGTGGCGCTGTCAATCCGGAAGCCAAACCGAAGCGGATTCACGTTGCAATCTGTTGCGCGAATCCGTTCGATCAATCCACAG (double strand) [F2 (BS2, phaP3)]", "binding": "binds more weakly"}
